{"source": "paper PMC6683012", "parents": {"B1": {"name": "QSK1-nYFP [Arabidopsis] / SIRK1-cYFP [Arabidopsis] (parent)", "chain 1": "SDLESDRRALLAVRNSVRGRPLLWNMSASSPCNWHGVHCDAGRVTALRLPGSGLFGSLPIGGIGNLTQLKTLSLRFNSLSGPIPSDFSNLVLLRYLYLQGNAFSGEIPSLLFTLPSIIRINLGENKFSGRIPDNVNSATRLVTLYLERNQLSGPIPEITLPLQQFNVSSNQLNGSIPSSLSSWPRTAFEGNTLCGKPLDTCEAESPNGGDAGGPNTPPEKKDSDKLSAGAIVGIVIGCVVGLLLLLLILFCLCRKRKKEENVPSRNVEAPVAAATSSAAIPKETVVVVPPAKATGSESGAVNKDLTFFVKSFGEFDLDGLLKASAEVLGKGTVGSSYKASFEHGLVVAVKRLRDVVVPEKEFRERLHVLGSMSHANLVTLIAYYFSRDEKLLVFEYMSKGSLSAILHGNKGNGRTPLNWETRAGIALGAARAISYLHSRDGTTSHGNIKSSNILLSDSYEAKVSDYGLAPIISSTSAPNRIDGYRAPEITDARKISQKADVYSFGVLILELLTGKSPTHQQLNEEGVDLPRWVQSVTEQQTPSDVLDPELTRYQPEGNENIIRLLKIGMSCTAQFPDSRPSMAEVTRLIEEVSHSSGSPNPVSD", "chain 2": "VTETELRSLLEFRKGIRDETSHQRISWSDTSSLTDPSTCPNDWPGISCDPETGSIIAINLDRRGLSGELKFSTLSGLTRLRNLSLSGNSFSGRVVPSLGGISSLQHLDLSDNGFYGPIPGRISELWSLNHLNLSSNKFEGGFPSGFRNLQQLRSLDLHKNEIWGDVGEIFTELKNVEFVDLSCNRFNGGLSLPMENISSISNTLRHLNLSHNALNGKFFSEESIGSFKNLEIVDLENNQINGELPHFGSQPSLRILKLARNELFGLVPQELLQSSIPLLELDLSRNGFTGSISEINSSTLTMLNLSSNGLSGDLPSSFKSCSVIDLSGNTFSGDVSVVQKWEATPDVLDLSSNNLSGSLPNFTSAFSRLSVLSIRNNSVSGSLPSLWGDSQFSVIDLSSNKFSGFIPVSFFTFASLRSLNLSRNNLEGPIPFRGSRASELLVLNSYPQMELLDLSTNSLTGMLPGDIGTMEKIKVLNLANNKLSGELPSDLNKLSGLLFLDLSNNTFKGQIPNKLPSQMVGFNVSYNDLSGIIPEDLRSYPPSSFYPGNSKLSLPGRIPADSSGDLSLPGKKHHSKLSIRIAIIVASVGAAIMILFVLFAYHRTQLKDFHGRNRFTDQATTRDTKFGRSSRPSLFNFSSNVEQQSSSLSFSNDHLLTANSRSLSGIPGCEAEISEQGAPATSAPTNLLDDYPAASGRKSSSGGSPLSSSPRFSDQPVMLDVYSPDRLAGELFFLDVSLKLTAEELSRAPAEVLGRSSHGTLYKATLDNGHMLTVKWLRVGLVRHKKDFAREAKKIGSLKHPNIVPLRAYYWGPREQERLLLSDYLRGESLAMHLYETTPRRYSPMSFSQRLKVAVEVAQCLLYLHDRAMPHGNLKPTNIILSSPDNTVRITDYCVHRLMTPSGVAEQILNMSALGYSAPELSSASKPIPTLKSDVYAFGVILMELLTRRSAGDIISGQTGAVDLTDWVRLCDQEGRRMDCIDRDIAGGEEFSKGMEDALAVAIRCILSVNERPNIRQVLDHLTSISA"}, "B2": {"name": "SIRK1-cYFP [Arabidopsis] / QSK1-nYFP [Arabidopsis] (parent)", "chain 1": "B1 chain 2", "chain 2": "B1 chain 1"}, "B3": {"name": "SIRK1-cYFP [Arabidopsis] / QSK2-nYFP [Arabidopsis] (parent)", "chain 1": "B1 chain 2", "chain 2": "DLEADRRALIALRDGVHGRPLLWNLTAPPCTWGGVQCESGRVTALRLPGVGLSGPLPIAIGNLTKLETLSFRFNALNGPLPPDFANLTLLRYLYLQGNAFSGEIPSFLFTLPNIIRINLAQNNFLGRIPDNVNSATRLATLYLQDNQLTGPIPEIKIKLQQFNVSSNQLNGSIPDPLSGMPKTAFLGNLLCGKPLDACPVNGTGNGTVTPGGKGKSDKLSAGAIVGIVIGCFVLLLVLFLIVFCLCRKKKKEQVVQSRSIEAAPVPTSSAAVAKESNGPPAVVANGASENGVSKNPAAVSKDLTFFVKSFGEFDLDGLLKASAEVLGKGTFGSSYKASFDHGLVVAVKRLRDVVVPEKEFREKLQVLGSISHANLVTLIAYYFSRDEKLVVFEYMSRGSLSALLHGNKGSGRSPLNWETRANIALGAARAISYLHSRDATTSHGNIKSSNILLSESFEAKVSDYCLAPMISPTSTPNRIDGYRAPEVTDARKISQKADVYSFGVLILELLTGKSPTHQQLHEEGVDLPRWVSSITEQQSPSDVFDPELTRYQSDSNENMIRLLNIGISCTTQYPDSRPTMPEVTRLIEEVSRSPASPGPLSD"}}, "data": [{"variants_of": "B1", "assay": "ratiometric bimolecular fluorescence complementation (rBiFC)", "settings": "with SIRK1-cYFP [Arabidopsis]; n=12 cells (parent n=10); value is box-plot median; parent: 0.9; read off a plot", "values": [{"variant": "chain 1 S598D S603D", "response": 1.8}]}, {"variants_of": "B1", "assay": "ratiometric bimolecular fluorescence complementation (rBiFC)", "settings": "with SIRK1-cYFP [Arabidopsis]; n=14 cells (parent n=10); value is box-plot median; parent: 0.9; read off a plot", "values": [{"variant": "chain 1 S598A S603A", "response": 1}]}, {"variants_of": "B2", "assay": "ratiometric bimolecular fluorescence complementation (rBiFC)", "settings": "with QSK1-nYFP [Arabidopsis]; n=10 cells (parent n=10); value is box-plot median; parent: 0.9; read off a plot", "values": [{"variant": "chain 1 S723D", "response": 1.3}, {"variant": "chain 1 S723A", "response": 0.18}]}, {"variants_of": "B3", "assay": "ratiometric bimolecular fluorescence complementation (rBiFC)", "settings": "with QSK2-nYFP [Arabidopsis]; n=35 cells (parent n=32); value is box-plot median; parent: 1.6; read off a plot", "values": [{"variant": "chain 1 S723D", "response": 1.7}]}, {"variants_of": "B3", "assay": "ratiometric bimolecular fluorescence complementation (rBiFC)", "settings": "with QSK2-nYFP [Arabidopsis]; n=34 cells (parent n=32); value is box-plot median; parent: 1.6; read off a plot", "values": [{"variant": "chain 1 S723A", "response": 0.15}]}]}
